Measurements taken from patent US20100015126A1, “Methods of Binding of Cross-Beta Structures By Chaperones” (priority 2006, published 2010).

Tests used:
[1] = target: T1, human mitochondrial HSP60 (Homo sapiens, UniProt P10809); test: ELISA: binding of HSP60 to immobilized (misfolded) protein ligands
T1 construct: Dr. W. van Eden, Utrecht University; host or cells: E. coli
Experimental: Recombinant human HSP60 with N-terminal His-tag was a kind gift of Dr. R. van der Zee and Prof. Dr. W. van Eden (Institute of Infectious Diseases and Immunology, Faculty of Veterinary Medicine, Utrecht University, Utrecht, The Netherlands), and was supplied in lyophilized form. The HSP60 was produced in E. coli and purified using Nickel-Sepharose. The HSP60 was lyophilized from 20-40 mM ammonium-bicarbonate solution, after purification, and stored at −20° C. The construct lacks the mitochondrial signal sequence. […] Before use, the lyophilized protein is dissolved at room temperature at 1 mg/ml in 20-40 mM NH4HCO3, resulting in a pH of 7.0. Aliquots are stored at −20° C. or −80° C. The mitochondrial HSP60 is a functional dimer of heptamers (MW(HSP60 monomer)=˜58 kDa), and is involved in multimer protein assembling and aids in transport of unfolded proteins across membranes. For the binding studies, at two occasions separate HSP60 solutions were prepared originating from the same batch of purified protein, lyophilized in separate Eppendorf cups.
Binding of chaperones to immobilized (misfolded) protein ligands was determined using an enzyme linked immuno sorbent assay (ELISA) approach. […] After 5 washes with wash buffer followed by two washes with PBS, binding of antibodies was assessed. […] Plates were read at 450 nm. […]

[2] = Transmission electron microscopy (TEM); assay type: physicochemical; details: magnification 10K
Experimental: Transmission Electron Microscopy (TEM)
TEM images were collected using a Jeol 1200 EX transmission electron microscope (Jeol Ltd., Tokyo, Japan) at an excitation voltage of 80 kV. For each sample, the formvar and carbon-coated side of a 100-mesh copper or nickel grid was positioned on a 5 μl drop of protein solution for 5 minutes. Afterwards, it was positioned on a 100 μl drop of PBS for 2 minutes, followed by three 2-minute incubations with a 100 μl drop of distilled water. The grids were then stained for 2 minutes with a 100 μl drop of 2% (m/v) methylcellulose with 0.4% uranyl acetate pH 4. Excess fluid was removed by streaking the side of the grids over filter paper, and the grids were subsequently dried under a lamp. Samples were analysed at a magnification of 10K.

immobilized BiP = target: T2, immobilized BiP (Homo sapiens, UniProt P11021); test: Depletion of solutions from misfolded proteins using immobilized BiP (ELISA); assay type: binding; details: BiP coated at 5 μg/ml; 1, 10, 100 μg/ml misfolded protein
T2 construct: The human BiP gene except the signal peptide encoding region was obtained from Geneart (Germany); linker […]; made in house; host or cells: HEK 293E cells, transient transfection, PABC674 vector; secreted into the medium
T2 sequence (P11021 19-654): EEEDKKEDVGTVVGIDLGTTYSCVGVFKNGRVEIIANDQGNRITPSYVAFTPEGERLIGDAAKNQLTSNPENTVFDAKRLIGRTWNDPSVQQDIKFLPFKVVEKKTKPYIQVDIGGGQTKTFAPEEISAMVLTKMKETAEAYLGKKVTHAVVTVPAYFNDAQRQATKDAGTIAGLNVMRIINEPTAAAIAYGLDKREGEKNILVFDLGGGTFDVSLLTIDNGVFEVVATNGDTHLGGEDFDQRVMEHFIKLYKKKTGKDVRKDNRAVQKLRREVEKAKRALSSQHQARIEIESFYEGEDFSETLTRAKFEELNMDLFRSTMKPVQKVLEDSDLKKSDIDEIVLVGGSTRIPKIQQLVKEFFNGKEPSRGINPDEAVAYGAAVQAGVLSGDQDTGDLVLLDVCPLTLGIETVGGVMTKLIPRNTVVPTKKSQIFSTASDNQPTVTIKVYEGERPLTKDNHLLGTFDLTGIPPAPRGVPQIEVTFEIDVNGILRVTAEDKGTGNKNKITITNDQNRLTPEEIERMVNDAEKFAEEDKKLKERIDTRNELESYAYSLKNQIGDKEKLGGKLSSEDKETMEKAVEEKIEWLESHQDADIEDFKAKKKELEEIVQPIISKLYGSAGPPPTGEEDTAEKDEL
Experimental: We analysed whether recombinant human BiP with a C-terminal FLAG-tag and His-tag can be applied for depleting solutions from misfolded proteins comprising crossbeta structure.
BiP was coated at a concentration of 5 μg/ml at Greiner Microlon high-binding plates, for 1 h at room temperature with motion. As a negative control buffer was coated. ELISAs were performed essentially as described before. […] All binding buffers were PBS/0.1% (v/v) Tween20. Binding of dOVA was assayed using monoclonal anti-chicken egg albumin antibody (Sigma, A6075, 1:10.000 dilution) and RAMPO (Dako Cytomation, P0260, 1:3.000). […] Background signals obtained with buffer coated wells that were subsequently overlayed with protein solutions (see below), were subtracted from signals obtained with wells with coated BiP.

T1 sequence (P10809 27-573): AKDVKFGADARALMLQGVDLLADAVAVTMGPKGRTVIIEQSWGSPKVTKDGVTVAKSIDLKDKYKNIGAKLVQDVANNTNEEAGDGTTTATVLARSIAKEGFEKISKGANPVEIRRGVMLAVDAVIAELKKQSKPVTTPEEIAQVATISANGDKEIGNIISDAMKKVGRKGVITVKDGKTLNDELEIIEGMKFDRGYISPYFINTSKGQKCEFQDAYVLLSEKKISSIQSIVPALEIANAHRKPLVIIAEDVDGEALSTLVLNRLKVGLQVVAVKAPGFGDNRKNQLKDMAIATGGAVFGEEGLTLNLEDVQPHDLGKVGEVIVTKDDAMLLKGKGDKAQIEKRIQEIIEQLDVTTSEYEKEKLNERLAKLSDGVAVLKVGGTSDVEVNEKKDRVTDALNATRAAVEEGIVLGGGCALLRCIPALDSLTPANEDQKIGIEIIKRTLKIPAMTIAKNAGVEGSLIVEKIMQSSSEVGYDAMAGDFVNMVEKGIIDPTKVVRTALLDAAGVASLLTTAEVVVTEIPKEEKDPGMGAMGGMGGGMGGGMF

B1: dOVA standard: heat-denatured chicken ovalbumin (protein)
chain: GSIGAASMEFCFDVFKELKVHHANENIFYCPIAIMSALAMVYLGAKDSTRTQINKVVRFDKLPGFGDSIEAQCGTSVNVHSSLRDILNQITKPNDVYSFSLASRLYAEERYPILPEYLQCVKELYRGGLEPINFQTAADQARELINSWVESQTNGIIRNVLQPSSVDSQTAMVLVNAIVFKGLWEKAFKDEDTQAMPFRVTEQESKPVQMMYQIGLFRVASMASEKMKILELPFASGTMSMLVLLPDEVSGLEQLESIINFEKLTEWTSSNVMEERKIKVYLPRMKMEEKYNLTSVLMAMGITDVFSSSANLSGISSAESLKISQAVHAAHAEINEAGREVVGSAEAGVDAASVSEEFRADHPFLFCIKHIATNAVLFFGRCVSP
With B1 the “Binding of concentration series of HSP60 to coated ligand” value [1] was “has been established”, the “Appearance on TEM images” value [2] was “aggregates into non-fibrillar multimers” and the “Extraction from solution by immobilized BiP” value (immobilized BiP) was “can be extracted”.
